B1: 4-Met substituted E. coli Cir (colicin Ia receptor), the paper's wildtype (WT) Cir [E. coli] / Microcin V (MccV), mature, wildtype [modified: biotinylated (EZ-Link Sulfo-NHS-LC kit) for BLI and ELISA; not labelled for … (parent)
chain 1: VDDDGETMVVTASSVEQNLKDAPASISVITQEDLQRKPVQNLKDVLKEVPGVQLTNEGDNRKGVSIRGLDSSYTLILVDGKRVNSRNAVFRHNDFDLNWIPVDSIERIEVVRGPMSSLYGSDALGGVVNIITKKIGQKWSGTVTVDTTIQEHRDRGDTYNGQFFTSGPLIDGVLGMKAYGSLAKREKDDPQNSTTTDTGETPRIEGFSSRDGNVEFAWTPNQNHDFTAGYGFDRQDRDSDSLDKNRLERQNYSVSHNGRWDYGTSELKYYGEKVENKNPGNSSPITSESNTVDGKYTLPLTAINQFLTVGGEMRHDKMSDAVNLTGGTSSKTSASQYALFVEDEWRIFEPLALTTGVRMDDHETYGEHWSPRAYLVYNATDTVTVKGGWATAFKAPSLLQLSPDWTSNSCRGACKIVGSPDLKPETSESWELGLYYMGEEGWLEGVESSVTVFRNDVKDRISISRTSDVNAAPGYQNFVGFETGANGRRIPVFSYYNVNKARIQGVETELKIPFNDEWKLSINYTYNDGRDVSNGENKPLSDLPFHTANGTLDWKPLALEDWSMYMSGHYTGQKRADSATAKTPGGYTIWNTGAAWQVTKDVKLRAGVLNLGDKDLSRDDYSYNEDGRRYFMAVDYRF
chain 2: ASGRDIAMAIGTLSGQFVAGGIGAAAGGVAGGAIYDYASTHKPNPAMSPSGLGGTIKQKPEGIPSEAWNYAAGRLCNWSPNNLSDVCL

Variants of: B1
Assay: BLI
Details: for Kd: 100 nM biotinylated MccV loaded onto streptavidin-coated sensors, probed with dilutions of Cir, PBS-T; for response: raw shift at end of association (600 s), 100 nM biotinylated MccV on sensor, not baseline-subtracted, read off a plot
[1] = with 4-Met substituted E. coli Cir (colicin Ia receptor)

Variant	Kd (with Microcin V (MccV))	Kd [1]	response (with 4-Met substituted E. coli Cir (colicin Ia receptor), 5 µM WT Cir, PBST trace at about 1.85 nm)	response (with 4-Met substituted E. coli Cir (colicin Ia receptor), 5 µM WT Cir, PBST trace at about 1.65 nm)	response (with Microcin V (MccV), 5 µM Cir, PBST trace at about 1.5 nm)
chain 1 R411E R465E	1580 nM				
chain 2 D85R		692 nM	3.2 nm		
chain 2 D85A		888 nM		3.3 nm	
chain 1 C410A	552 nM				4.5 nm
